In one assay the target is HLA-B*07:02. Put plainly: IEDB peptide-MHC binding, purified MHC/competitive/radioactivity; filed as Kd, often an IC50 or EC50 that approximates it; ≥ and ≤ were set here for values at or beyond the usual limits of such assays.
The target of another assay is HLA-B*18:01. The assay is described as above.
Another assay concerns the target HLA-B*40:01. The assay is described as above.
The target in the next assay is HLA-B*40:02. The assay is described as above.
A further assay has as its target HLA-B*44:02. Described as above.
For a further assay, the target named is HLA-B*44:03. Described as above.
The target in a further assay is HLA-B*45:01. The assay is described as above.
A further assay concerns the target HLA-A*02:01. Put plainly: IEDB peptide-MHC binding, purified MHC/competitive/fluorescence; ≥ and ≤ were set here for values at or beyond the usual limits of such assays.
For the next assay, the target named is HLA-A*24:02. The assay is described as above.
Another assay addresses HLA-B*35:01. Put plainly: IEDB peptide-MHC binding, purified MHC/competitive/radioactivity; filed as Kd, often an IC50 or EC50 that approximates it; ≥ and ≤ were set here for values at or beyond the usual limits of such assays.
A further assay has as its target HLA-B*53:01. The description is as above.
The next assay has as its target HLA-B*08:01. Described as above. As to conditions: source organism: Dengue virus 2 Jamaica/1409/1983.
The next assay has as its target HLA-B*51:01. The description is as above.
Where [1] appears, read: source organism: Dengue virus 4 Philippines/H241/1956.
The mark [2] stands for this setting: source organism: Mammarenavirus juninense.
Setting [3] is: source organism: SARS coronavirus Tor2.
Setting [4] is: source organism: Mammarenavirus machupoense.
The mark [5] stands for this setting: source organism: Zaire ebolavirus.
The mark [6] stands for this setting: source organism: Lymphocytic choriomeningitis virus (strain Armstrong).
The mark [7] stands for this setting: source organism: Sudan ebolavirus.
[8] abbreviates: source organism: Dengue virus 3 Martinique/1243/1999.
Where [9] appears, read: source organism: Dengue virus 2 Jamaica/1409/1983.
The mark [10] stands for this setting: source organism: Mammarenavirus lassaense.

On to TPQDNQLIYV, for which, in the assay with HLA-B*07:02 (setting [1]), the Kd stood at 7760 nM.
As to EELIKLRFWF, the Kd is 748 nM with HLA-B*18:01 (setting [2]); not below 36700 nM with HLA-B*40:01 (setting [2]); 10400 nM with HLA-B*40:02 (setting [2]); 680 nM with HLA-B*44:02 (setting [2]); 132 nM with HLA-B*44:03 (setting [2]); 9880 nM in the assay with HLA-B*45:01 (setting [2]).
On to SEAFLIGANY, for which the dissociation constant (Kd) is 4.42 nM in the assay with HLA-B*18:01 (setting [3]); not below 10000 nM in the assay with HLA-B*40:01 (setting [3]); 348 nM in the assay with HLA-B*40:02 (setting [3]); 8.47 nM in the assay with HLA-B*44:02 (setting [3]); 3.75 nM with HLA-B*44:03 (setting [3]); 578 nM in the assay with HLA-B*45:01 (setting [3]).
In the case of SELRPDTRY, the Kd in the assay with HLA-B*18:01 (setting [3]) worked out at 11200 nM; in the assay with HLA-B*40:01 (setting [3]) it was 11300 nM; with HLA-B*40:02 (setting [3]), 3140 nM; with HLA-B*44:02 (setting [3]) it was 520 nM; with HLA-B*44:03 (setting [3]), 714 nM; with HLA-B*45:01 (setting [3]) it was 1650 nM.
RECYAQRFYL: the Kd in the assay with HLA-B*18:01 (setting [4]) worked out at 137 nM; in the assay with HLA-B*40:01 (setting [4]), 9580 nM; with HLA-B*40:02 (setting [4]), 5.55 nM; with HLA-B*44:02 (setting [4]), 525 nM; with HLA-B*44:03 (setting [4]), 250 nM; with HLA-B*45:01 (setting [4]), 1440 nM.
In the case of AAIGLAWIP, the results for the IC50 with HLA-A*02:01 (setting [5]) and in the assay with HLA-A*24:02 (setting [5]) were not below 280000 nM and not below 131000 nM, respectively.
FENAILSMTI: the Kd with HLA-B*18:01 (setting [6]) was found to be 126 nM; in the assay with HLA-B*40:01 (setting [6]), 1450 nM; in the assay with HLA-B*40:02 (setting [6]) it was 6.31 nM; with HLA-B*44:02 (setting [6]), 237 nM; with HLA-B*44:03 (setting [6]), 388 nM; with HLA-B*45:01 (setting [6]) it was 3020 nM.
In the case of LITSTVTGI, the results for the half-maximal inhibitory concentration (IC50) in the assay with HLA-A*02:01 (setting [7]) and with HLA-A*24:02 (setting [7]) were 1640 nM and 17900 nM, respectively.
Consider MPGTFQTTTG, for which the figures for the dissociation constant Kd with HLA-B*35:01 (setting [8]) and with HLA-B*53:01 (setting [8]) were 157 nM and 427 nM, respectively.
On to RLRMDKLQL, for which the Kd with HLA-B*07:02 (setting [9]) was determined as 149 nM; with HLA-B*08:01, 175 nM.
For the sequence KENLYIKSI, the Kd with HLA-B*18:01 (setting [10]) was not below 28800 nM; with HLA-B*40:01 (setting [10]) it was 14200 nM; in the assay with HLA-B*40:02 (setting [10]), 19.1 nM; with HLA-B*44:02 (setting [10]) it was 232 nM; with HLA-B*44:03 (setting [10]), 118 nM; in the assay with HLA-B*45:01 (setting [10]) it was 2150 nM.
EEVAIILASF: the Kd in the assay with HLA-B*18:01 (setting [3]) was 108 nM; in the assay with HLA-B*40:01 (setting [3]), 3430 nM; with HLA-B*40:02 (setting [3]) it was 406 nM; in the assay with HLA-B*44:02 (setting [3]) it was 77.6 nM; in the assay with HLA-B*44:03 (setting [3]) it was 19.2 nM; with HLA-B*45:01 (setting [3]), 1390 nM.
As for CELYHYQECV, the dissociation constant Kd with HLA-B*18:01 (setting [3]) was not below 36200 nM; in the assay with HLA-B*40:01 (setting [3]), 1720 nM; with HLA-B*40:02 (setting [3]), 8200 nM; with HLA-B*44:02 (setting [3]), 7850 nM; in the assay with HLA-B*44:03 (setting [3]), 4200 nM; in the assay with HLA-B*45:01 (setting [3]) it was 425 nM.
Consider EPWLSSKPEF, for which the figures for the Kd in the assay with HLA-B*35:01 (setting [1]) and with HLA-B*53:01 (setting [1]) were 1380 nM and 684 nM, respectively.
On to SEFSSLPSYA, for which the Kd in the assay with HLA-B*18:01 (setting [3]) stood at 1060 nM; with HLA-B*40:01 (setting [3]) it was 431 nM; with HLA-B*40:02 (setting [3]), 22.4 nM; with HLA-B*44:02 (setting [3]), 343 nM; in the assay with HLA-B*44:03 (setting [3]), 13.1 nM; in the assay with HLA-B*45:01 (setting [3]), 25.3 nM.
For SPARLASAI, the Kd with HLA-B*07:02 (setting [1]) stood at 2.68 nM; with HLA-B*51:01 (setting [1]) it was 532 nM.
With CEEGKLCYLT, the Kd with HLA-B*18:01 (setting [4]) was 14100 nM; with HLA-B*40:01 (setting [4]), not below 69500 nM; with HLA-B*40:02 (setting [4]) it was 8090 nM; in the assay with HLA-B*44:02 (setting [4]) it was 13200 nM; with HLA-B*44:03 (setting [4]) it was 16200 nM; in the assay with HLA-B*45:01 (setting [4]) it was 1600 nM.
Turning to VPTSRTTWSI, the Kd with HLA-B*07:02 (setting [9]) came out at 50.3 nM; with HLA-B*51:01 (setting [9]) it was 52.5 nM.
With FENAILSMT, the Kd is 3300 nM with HLA-B*18:01 (setting [6]); 18400 nM in the assay with HLA-B*40:01 (setting [6]); 32.3 nM with HLA-B*40:02 (setting [6]); 6480 nM with HLA-B*44:02 (setting [6]); 6370 nM with HLA-B*44:03 (setting [6]); 1820 nM with HLA-B*45:01 (setting [6]).
For DGQQFYWPV, the IC50 with HLA-A*02:01 (setting [5]) was found to be 57200 nM; with HLA-A*24:02 (setting [5]) it was 62000 nM.
In the case of GDYFVLTSHT, the Kd with HLA-B*18:01 (setting [3]) was not below 70500 nM; in the assay with HLA-B*40:01 (setting [3]) it was not below 69600 nM; in the assay with HLA-B*40:02 (setting [3]), not below 37700 nM; with HLA-B*44:02 (setting [3]) it was not below 50900 nM; in the assay with HLA-B*44:03 (setting [3]), not below 22600 nM; in the assay with HLA-B*45:01 (setting [3]), not below 70000 nM.

Values taken from the Immune Epitope Database (IEDB).
